According to PMC5389651:
Positions count from the first letter of the chain named.

T1: Nop15 81-220 (Saccharomyces cerevisiae, UniProt P53927 81-220)
T1 sequence: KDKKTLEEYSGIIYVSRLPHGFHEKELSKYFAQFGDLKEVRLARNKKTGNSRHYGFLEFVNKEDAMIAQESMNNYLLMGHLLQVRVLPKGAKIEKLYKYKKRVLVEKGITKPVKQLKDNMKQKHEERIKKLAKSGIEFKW

T2: Nop15 (Saccharomyces cerevisiae, UniProt P53927 1-220)
T2 sequence: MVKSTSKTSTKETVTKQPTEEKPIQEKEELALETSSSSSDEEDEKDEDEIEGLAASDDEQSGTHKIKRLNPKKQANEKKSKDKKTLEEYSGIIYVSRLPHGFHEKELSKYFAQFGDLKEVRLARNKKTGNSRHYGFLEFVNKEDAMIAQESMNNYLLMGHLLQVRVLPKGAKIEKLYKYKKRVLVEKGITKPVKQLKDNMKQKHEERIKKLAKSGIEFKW

T3: Nop15 81-180 (Saccharomyces cerevisiae, UniProt P53927 81-180)
T3 sequence: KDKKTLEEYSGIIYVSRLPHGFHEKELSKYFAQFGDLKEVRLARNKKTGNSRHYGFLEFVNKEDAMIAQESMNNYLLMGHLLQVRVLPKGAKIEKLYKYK

T4: Nop15 81-191 (Saccharomyces cerevisiae, UniProt P53927 81-191)
T4 sequence: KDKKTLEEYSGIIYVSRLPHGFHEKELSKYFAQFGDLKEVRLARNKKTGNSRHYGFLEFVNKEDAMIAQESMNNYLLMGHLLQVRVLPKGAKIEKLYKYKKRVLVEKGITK

B1: ITS2 26-51 (structured_RNA)
RNA: UGAGUGAUACUCUUUGGAGUUAACUU
B2: ITS2 26-60 upper (structured_RNA)
RNA: UGAGUGAUCAACUUUGGUUGUAACUUGAAAUUGCU
B3: ITS2 26-60 WT (structured_RNA)
RNA: UGAGUGAUACUCUUUGGAGUUAACUUGAAAUUGCU
B4: ITS2 26-60 disrupted lower (structured_RNA)
RNA: B3 RNA with G2C, A3U
B5: ITS2 26-60 lower2 (structured_RNA)
RNA: B3 RNA with G2U, A3U, U25A, U26G
B6: ITS2 26-60 lower1 (structured_RNA)
RNA: B3 RNA with G4C, U5A, A23U, C24G
B7: ITS2 26-60 disrupted upper (structured_RNA)
RNA: B3 RNA with A9C, C10A
B8: ITS2 26-60 bulge (structured_RNA)
RNA: UGAGUCUAACUCUUUGGAGUAUACUUGAAAUUGCU
B9: ITS2 26-60 paired (structured_RNA)
RNA: UGAGUGAUACUCUUUGGAGUAUCACUUGAAAUUGCU

What was measured:
Test in all cases: fluorescence polarization; 150 mM NaCl; 50 mM HEPES pH 7.5, 150 mM NaCl (250 mM in one row), room temperature, 40 min, 9 nM RNA
[1] = target: T1, Nop15 81-220
[2] = target: T2, Nop15
[3] = target: T3, Nop15 81-180
[4] = target: T4, Nop15 81-191

Binder	Kd [1] [nM]	further results
B1	104 ± 3.6	–
B2	44.9 ± 4.3	–
B3	35.4 ± 1.3	Kd [2]: 293 ± 23 nM; Kd [3]: 1050 ± 111 nM; Kd [4]: 209 ± 15 nM
B4	144 ± 16	–
B5	39.3 ± 2.7	–
B6	52.1 ± 3.6	–
B7	35.5 ± 3.2	–
B8	73.6 ± 5.6	–
B9	89 ± 8.9	–
